A value given as a limit tells only on which side of the number the result lay.

The values below come from US8821862B2, “Soluble β-N-acetylglucosaminidase based antibiofilm compositions and uses thereof” (Kane Biotech Inc., priority 2002, dated 2014).

In data set [1] the test system is biofilm-embedded S. epidermidis. Briefly: In vitro biofilm killing assay after DispersinB pre-treatment. In kind it is cell-based, Staphylococcus epidermidis. The conditions noted are these: DispersinB alone, 20 μg/ml, 30 min. On the procedure:
An in vitro biofilm assay was performed to determine the effect of DispersinB™ pre-treatment on the susceptibility of S. epidermidis to SDS. S. epidermidis biofilm grown in tubes were pretreated with PBS or DispersinB™ (20 μg/ml) for 30 min, and then treated with SDS (0.2 mg/ml) for 5 min at 37° C. […] However, SDS caused a 1.5 log unit decrease in the number of CFUs in tubes pretreated with […] biofilm embedded cells more susceptible to SDS.
An in vitro biofilm assay was performed to determine the effect of DispersinB™ pre-treatment on the susceptibility of biofilm-embedded S. epidermidis to CHX. S. epidermidis biofilm grown in tubes were pretreated with PBS or DispersinB™ (20 μg/ml) for 30 min, and then treated with CHX (0.2 μg/ml) for 5 min at 37° C. […] However, CHX caused a 1.6 log decrease of CFU in tubes pretreated with DispersinB™. DispersinB™ pretreatment made biofilm-embedded cells more susceptible to CHX.
An in vitro biofilm assay was performed to determine the effect of DispersinB™ pre-treatment on the susceptibility of S. epidermidis to BKC. S. epidermidis biofilm grown in tubes were pretreated with PBS or DispersinB™ (20 μg/ml) for 30 min, and then treated with BKC (0.4 μg/ml) for 60 min at 37° C. […] However, BKC caused a 2.2 log decrease in CFU in tubes pretreated with DispersinB™. DispersinB™ pre-treatment made biofilm-embedded cells more susceptible to BKC.
An in vitro biofilm assay was performed to determine the effect of DispersinB™ pre-treatment on susceptibility of S. epidermidis to silver nanopowder (SNP). S. epidermidis biofilm grown in tubes were pretreated with PBS or DispersinB™ (20 μg/ml) for 30 min, and then treated with SNP (0.03125 μg/ml) for 60 min at 37° C. […] However, SNP caused a 1.5 log decrease in CFU in tubes pretreated with DispersinB™. DispersinB™ pre-treatment made biofilm embedded cells more susceptible to SNP treatment.

The test system of data set [2] is A. actinomycetemcomitans strain CU1000 (wild-type) biofilms. Briefly: Biofilm detachment assay (crystal violet). Format: cell-based. The text has this: (§1) Bacterial strains, media, and growth conditions. A. actinomycetemcomitans strain CU1000 (serotype f) was isolated from a person with localized aggressive periodontitis (Fine et al., Microbiol. 1999, 145: 1335-1347). […] An isogenic PGA mutant strain HW1018 (CU1000 pgaC::IS903φKan) was isolated by randomly mutagenizing CU1000 with transposon IS903φKan and selecting mutants that produced white colonies on Congo red agar, as previously described (Kaplan et al., 2003; Kaplan et al., J. Bacteriol. 2004, 186: 8213-8220). Like other pgaC mutant strains, HW1018 was completely deficient in PGA production, but still formed tenacious biofilms on plastic surfaces (Kaplan et al., 2004). Bacteria were grown in trypticase soy broth supplemented with […] and 8 g/L glucose. Solid medium was supplemented with 15 g/L agar. All cultures were incubated statically at 37° C. in 10% CO2.
(§2) Biofilm Cultures. Biofilms were grown in 17 mm×100 mm culture tubes (untreated polystyrene; Falcon #352051) or 96-well microtiter plates (tissueculture-treated polystyrene, flat bottoms; Falcon #353072). Culture vessels were inoculated with a 1:10 dilution of inoculum in fresh broth (1 mL for tubes or 200 μL for microplates) and incubated for 24 h.
(§3) Crystal Violet Assay. Biofilm biomass was visualized and quantitated by means of a crystal violet binding assay as previously described (Kaplan et al., Antimicrob. Agents Chemother. 2004, 48: 2633-2636). Briefly, biofilms were rinsed with water to remove loosely attached cells, stained for 1 min with Gram's crystal violet (200 μL for microplates and 1 mL for tubes), rinsed, dried, and photographed. For quantitation of biofilms grown in microplates, biofilms were de-stained with 200 μL of 33% acetic acid for 5 min, and the absorbance of the crystal violet solution was measured directly in the plate by means of a BioRad Benchmark microtiter plate-reader set at 590 nm. Crystal violet binds to bacterial biofilms, but not to polystyrene (O'Toole & Kolter, Mol. Microbiol. 1998, 28: 449-461).
(§4) Biofilm Detachment Assay. Biofilms were rinsed with water and treated with 200 μL (for microplates) or 1 mL (for tubes) of DispersinB™ (20 μg/mL in PBS) or SDS (0.001-1% in PBS). After a five- or 30-minute incubation at 37° C., biofilms were rinsed with water and stained with crystal violet as described above. In some assays, biofilms were first treated with DispersinB™ for 5 or 30 min, rinsed, and then treated with SDS. All detachment assays were performed in duplicate wells or tubes. All assays were performed on at least 3 separate occasions, with similar results.

For data set [3], the system named is A. actinomycetemcomitans strain HW1018 (PGA mutant) biofilms. Briefly: Biofilm detachment assay (crystal violet). Format: cell-based. To be noted: DispersinB 20 μg/mL; either culture vessel.
Description: as §1, §2, §3, §4

A short description of data set [4]: DispersinB enzyme activity. Format: biochemical. The conditions noted are these: recombinant protein purified from an overexpressing strain of E. coli. As for the experimental part:
Reagents. Recombinant dispersinB protein was purified from an overexpressing strain of E. coli as previously described (Kaplan et al., J. Bacteriol. 2003, 185: 4693-4698). […] Sodium dodecyl sulfate (SDS) was purchased from Fluka (St. Gallen, Switzerland). Phosphate-buffered saline (PBS; 138 mM NaCl, 10 mM phosphate, 2.7 mM KCl, pH 7.4) was purchased from Sigma Chemical Company (St. Louis, Mo., USA).

B1: DispersinB™: 381 amino acid soluble β-N-acetylglucosaminidase encoded by dspB of A. actinomycetemcomitans; mature polypeptide SEQ ID NO:11 (protein)
chain: NCCVKGNSIYPQKTSTKQTGLMLDIARHFYSPEVIKSFIDTISLSGGNFLHLHFSDHENYAIESHLLNQRAENAVQGKDGIYINPYTGKPFLSYRQLDDIKAYAKAKGIELIPELDSPNHMTAIFKLVQKDRGVKYLQGLKSRQVDDEIDITNADSITFMQSLMSEVIDIFGDTSQHFHIGGDEFGYSVESNHEFITYANKLSYFLEKKGLKTRMWNDGLIKNTFEQINPNIEITYWSYDGDTQDKNEAAERRDMRVSLPELLAKGFTVLNYNSYYLYIVPKASPTFSQDAAFAAKDVIKNWDLGVWDGRNTKNRVQNTHEIAGAALSIWGEDAKALKDETIQKNTKSLLEAVIHKTNGDE
modifications: Actinobacillus actinomycetemcomitans
For B1, the “killing of biofilm-embedded S. epidermidis” value in data set [1] is listed as “did not significantly kill”. Besides, in data set [2] (DispersinB 20 μg/mL in PBS, 5 min, 96-well microplate wells), the “detachment of wild-type biofilms from microplate wells” value is “not from microplate wells”. For the same molecule, the “detachment of wild-type biofilms from tubes” value in data set [2] (DispersinB 20 μg/mL in PBS, 5 min, polystyrene tubes) was “rapid detachment”. The “single cells in suspension after disaggregation of biofilms” value in data set [2] (biofilms grown in tubes, DispersinB, microscopic analyses (data not shown)) is more than 99%. For the same molecule, in data set [3], the “attachment of PGA mutant biofilms” value is “no effect”. Moreover, in data set [4], the specific activity is recorded as ~10^3 units per mg of protein.
